Measurements published in the supplement of paper PMC10567573.

B1: SNAP91 (parent)
chain: FSTDAFSSPPQGASPVPESSLTAD
B2: CAMK2A (parent)
chain: ILLVGYPPFWDEDQHRLYKQIKAG

Variants of: B1
Experiment: protein stability index of a GFP-peptide fusion (GPS, HEK-293T) (PSI 1-6); higher = more stable
Conditions: c terminus: a fixed tail appended
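Note: lentivirally expressed fusions sorted by FACS into six bins by GFP to DsRed ratio, PSI derived from sequencing read proportions per bin multiplied by bin number.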

Protein stability index of substitutions, site by site:
P17: L 3.23 | M 3.13 | N 3.52 | Q 3.21 | R 3.31 | S 3.86 | T 2.83 | V 3.25 | W 2.41 | Y 2.69
E18: A 3.22 | C 2.43 | D 3.15 | F 2.45 | G 3.05 | H 2.69 | I 2.63 | K 2.51 | L 2.42 | M 2.83 | N 2.61 | P 2.78 | Q 3.12 | R 2.65 | S 3.19 | T 2.81 | V 3.05 | W 2.26 | Y 2.74
S19: A 3.08 | C 3.19 | D 3.6 | E 3.19 | F 2.58 | G 2.46 | H 3.13 | I 2.91 | K 2.23 | L 2.79 | M 2.66 | N 3.44 | P 3.09 | Q 3.1 | R 2.55 | T 3.54 | V 2.85 | W 2.76 | Y 3.25
S20: A 3.56 | C 3.18 | D 3.48 | E 3.49 | F 2.68 | G 3.04 | H 3.04 | I 2.81 | K 3.09 | L 2.72 | M 2.98 | N 3.38 | P 2.46 | Q 3.04 | R 3.13 | T 3.47 | V 2.77 | W 2.52 | Y 2.93
L21: A 3.44 | C 3.38 | D 3.86 | E 4.1 | F 3.1 | G 3.14 | H 3.47 | I 3.01 | K 3.12 | M 3.11 | N 3.39 | P 3.33 | Q 3.53 | R 3.11 | S 3.58 | T 3.45 | V 3.39 | W 2.92 | Y 2.81
T22: A 2.92 | C 3.3 | D 3.46 | E 3.86 | F 2.96 | G 3.3 | H 3.09 | I 3.21 | K 2.64 | L 3.63 | M 3.31 | N 3.09 | P 2.83 | Q 3.36 | R 2.93 | S 3.63 | V 3.41 | W 2.28 | Y 3.21
A23: C 2.23 | D 3.36 | E 3.35 | F 3.01 | G 3.09 | H 2.85 | I 3.08 | K 3.49 | L 3.23 | M 2.97 | N 3.5 | P 2.8 | Q 3.91 | R 2.96 | S 2.94 | T 3.35 | V 2.96 | W 2.65
D24: A 3.03 | C 2.83 | E 3.02 | F 2.12 | G 2.75 | H 2.42 | I 2.92 | K 3.18 | L 3.07 | M 3.19 | N 2.62 | Q 3.01 | R 3.49 | S 2.78 | T 2.89 | V 2.18 | W 1.87 | Y 2.25

Variants of: B2
Experiment: as above
Conditions: c terminus: a fixed tail appended

Protein stability index of substitutions, site by site:
I1: A 2.25 | C 2.39 | D 2.1 | E 2.96 | F 1.72 | G 2.21 | K 2.23 | L 2.05 | M 1.8 | N 2.03 | P 2.27 | Q 1.82 | R 2.54 | S 2.33 | T 1.58 | V 2.15 | Y 1.73
L2: A 1.6 | C 2.11 | D 2.12 | E 2.04 | F 1.3 | G 2.4 | H 1.72 | I 2.57 | K 1.63 | M 3.1 | N 1.52 | P 1.86 | Q 1.42 | S 1.75 | T 1.86 | V 1.67 | Y 2.93
L3: A 1.65 | D 2.63 | E 2.19 | F 2.68 | G 1.88 | H 2.24 | I 2.58 | K 1.58 | M 1.72 | N 2.31 | P 2.58 | Q 1.79 | S 2.4 | T 1.97 | V 2.35 | W 2.4 | Y 1.74
V4: A 1.07 | C 1.64 | D 2.4 | E 1.53 | F 2.76 | G 2.24 | H 2.23 | I 3.1 | K 2.23 | L 2.66 | N 1.92 | P 1.73 | Q 2.33 | R 1.47 | S 1.65 | T 2.31 | Y 2.13
G5: A 2.27 | D 1.55 | E 3.74 | F 3.4 | H 2.32 | K 2.35 | M 2.53 | N 1.99 | P 3.17 | Q 2.37 | R 2.65 | T 2.74 | V 3.83 | W 1.53 | Y 1.49
Y6: A 1.67 | C 1.62 | D 2.12 | E 2.1 | F 2.73 | G 2.23 | H 1.28 | I 5.07 | K 1.39 | L 1.61 | M 2.36 | N 1.93 | P 2.19 | Q 2.17 | S 1.43 | T 1.77 | V 1.45 | W 3.13
P7: A 1.47 | D 1.39 | E 1.43 | F 2.85 | G 2.31 | H 3.75 | I 2.46 | L 2.89 | M 2.9 | Q 1.28 | T 2.56 | V 2.63 | W 2.73 | Y 4.41
P8: A 1.83 | C 4.72 | D 1.67 | E 2.1 | F 2.95 | K 2.06 | L 1.81 | M 1.89 | N 4.23 | R 3.38 | T 1.87 | V 2.96 | Y 1.98
F9: A 1.65 | C 2.58 | D 1.77 | E 1.44 | G 1.67 | H 1.84 | I 1.62 | K 2.52 | L 2.27 | M 1.99 | N 2.86 | P 2.13 | Q 2.38 | R 2.83 | S 2.19 | T 1.84 | V 2.37 | W 1.28 | Y 1.5
W10: A 1.73 | C 1.64 | D 1.69 | E 1.78 | F 2.27 | G 1.86 | H 1.56 | I 2.71 | K 1.6 | L 2.54 | M 1.18 | N 1.71 | P 3.75 | Q 2.27 | R 1.52 | S 2.45 | T 2.34 | V 2.05 | Y 2.05
D11: A 2.34 | C 2.48 | E 3.38 | F 3.09 | G 1.55 | H 2.29 | I 3.45 | K 2.46 | L 2.39 | M 2.52 | N 2.59 | P 2.35 | R 1.21 | S 2.62 | T 1.85 | V 2.18 | W 2.44 | Y 1.61
E12: A 1.49 | D 2.27 | F 2.03 | H 2.29 | I 2.76 | K 1.92 | L 1.95 | M 3.3 | N 1.42
